From US20160369011A1 (EISAI R AND D MANAGEMENT, published 2016)

How the values were obtained:
[1] = target: T1, human CA9 (carbonic anhydrase IX) (human, UniProt Q16790 38-414); test: BIAcore, summary of Table 13; reference xi155D5; told of the group of humanized variants
Method: (§1) Antibody concentrations were adjusted to generate 30-40 RU signal when bound to the antigen. […] The sensor surface was washed by injecting HBS-P buffer for 1 min at a flow rate of 50 μL/min. To record the antigen association to the captured mAb, a series of increasing concentrations of antigen was injected for 60 sec at a flow rate of 50 μL/min. The dissociation of antigen was monitored for 30 min at the same flow rate. The sensor surface was regenerated by injecting 3 M MgCl₂ for 1 min and then 30 sec at a flow rate of 30 μL/min. Sensograms were analyzed with Biacore T100 Evaluation Software using a 1:1 Langmuir binding model.
(§2) xi155D5 and the humanized variants were purified by standard protein A chromatography or the decapping method, and their affinity was analyzed using BIAcore (Table 13).

[2] = target: T1, human CA9 (carbonic anhydrase IX); test: BIAcore T100, mAb captured on anti-human IgG, antigen as analyte, 1:1 model; mAb purified by the decapping method (Decapped)
Method: as §1, §2

[3] = target: T1, human CA9 (carbonic anhydrase IX); test: BIAcore T100, mAb captured on anti-human IgG, antigen as analyte, 1:1 model; mAb purified by protein A (ProA)
Method: as §1, §2

[4] = target: T1, human CA9 (carbonic anhydrase IX); test: SPR (BIAcore), biotin-CA9 captured on CAP chip, antibody 0-50 nM as analyte
Method: To determine if chimerization, and therefore the loss of Cys80-Cys171 disulfide bond, results in structural perturbations leading to loss of antigen binding, the binding affinity of mAbs 155D5, xi155D5, 1-55-2, and xi1-55-2 by surface plasmon resonance was evaluated. Biotinylated ligand (biotin-hTEM1 for 1-55-2, biotin-CA9 for 155D5) was captured on a coated biotin CAP BIAcore chip (GE Healthcare, Piscataway, N.J.) using HBS-EP as running buffer. Final antigen capture levels were 130 RU and 280 RU, respectively, for biotin-TEM1 and biotin-CA9. Serial dilutions of antibody (120 μL of 0-50 nM) were passed over the ligand-coated chip. […] The chip surface was regenerated with 6 M GuHCl, 250 mM NaOH. Sensograms were double referenced and kinetic parameters were determined using BIAEvaluations software (ver. 4.1).

[5] = target: T1, human CA9 (carbonic anhydrase IX); test: SPR, ligand CA9, flow cell Fc4
[6] = target: T1, human CA9 (carbonic anhydrase IX); test: SPR, ligand CA9, flow cell Fc3

Row | Binder | fold difference in KD against chimeric xi155D5 [1] [fold] | Kd [2] [nM] | koff [2] [s⁻¹] | kon [2] [M⁻¹ s⁻¹] | Kd [3] [nM] | koff [3] [s⁻¹] | kon [3] [M⁻¹ s⁻¹] | Kd [4] [nM] | koff [4] [s⁻¹] | kon [4] [M⁻¹ s⁻¹] | Kd [5] [nM] | koff [5] [s⁻¹] | kon [5] [M⁻¹ s⁻¹] | Kd [6] [nM] | koff [6] [s⁻¹] | kon [6] [M⁻¹ s⁻¹]
1 | zu155D5-4 (antibody, human IgG1, kappa, Humanized 155D5, human IgG1 kappa; Tested both protein A purified and decapped) heavy: not shown light: DIQMTQSPSTLSASVGDRVTITCQASQSISSYLAWYQQKPGKAPKLLIYYASTLASGVPSRFSGSGSGTEFTLTITGVQCDDAATYYCLGVYGYSFDDGIAFGGGTKVEIKRTVAAPSVFIFPPSDEQLKSGTASVVCLLNNFYPREAKVQWKVDNALQSGNSQESVTEQDSKDSTYSLSSTLTLSKADYEKHKVYACEVTHQGLSSPVTKSFNRGEC | < 2 | 0.59 | 0.000378 | 641000 | 0.664 | 0.000382 | 577000 |  |  |  |  |  |  |  |  | 
2 | zu155D5-1 (antibody, human IgG1, kappa, V domains shown, Humanized 155D5, human IgG1 kappa; Tested both protein A purified (Cys80 capped) and decapped; also called zu155D5-CXXF; zu155D5-1 (huVK1-5)) VH: QVQLVESGGGLVQPGGSLRLSCSASGFSLNSYAMIWVRQAPGKGLEYIGFITTGGTTYYADSVKGRFTISRDNSKNTLYLQMNSLRAEDTAVYYCARDRVKSYDDYGDLDAFEPWGQGTLVTVSS VL: DIQMTQSPSTLSASVGDRVTITCQASQSISSYLAWYQQKPGKAPKLLIYYASTLASGVPSRFSGSGSGTEFTLTISSLQCDDFATYYCLGVYGYSFDDGIAFGGGTKVEIKR | < 2 | 0.5 | 0.000355 | 770000 | 0.498 | 0.000495 | 1.01e+06 |  |  |  |  |  |  |  |  | 
3 | zu155D5-2 (antibody, human IgG1, kappa, V domains shown, Humanized 155D5, human IgG1 kappa; Tested both protein A purified and decapped) VH: QVQLVESGGGLVQPGGSLRLSCSASGFSLNSYAMIWVRQAPGKGLEYIGFITTGGTTYYADSVKGRFTISRDNSKNTLYLQMNSLRAEDTAVYYCARDRVKSYDDYGDLDAFEPWGQGTLVTVSS VL: DIQMTQSPSTLSASVGDRVTITCQASQSISSYLAWYQQKPGKAPKLLIYYASTLASGVPSRFSGSGSGTEFTLTITGVQCDDFATYYCLGVYGYSFDDGIAFGGGTKVEIKR | < 2 | 0.589 | 0.00027 | 458000 | 0.569 | 0.000376 | 663000 |  |  |  |  |  |  |  |  | 
4 | zu155D5-3 (antibody, human IgG1, kappa, V domains shown, Humanized 155D5, human IgG1 kappa; Tested both protein A purified and decapped; also called zu155D5-CXXA) VH: QVQLVESGGGLVQPGGSLRLSCSASGFSLNSYAMIWVRQAPGKGLEYIGFITTGGTTYYADSVKGRFTISRDNSKNTLYLQMNSLRAEDTAVYYCARDRVKSYDDYGDLDAFEPWGQGTLVTVSS VL: DIQMTQSPSTLSASVGDRVTITCQASQSISSYLAWYQQKPGKAPKLLIYYASTLASGVPSRFSGSGSGTEFTLTISSLQCDDAATYYCLGVYGYSFDDGIAFGGGTKVEIKR | < 2 | 0.507 | 0.000351 | 726000 | 0.562 | 0.000401 | 727000 |  |  |  |  |  |  |  |  | 
5 | zu155D5-5 (antibody, human IgG1, kappa, V domains shown, Humanized 155D5, human IgG1 kappa; Tested both protein A purified and decapped) VH: QVQLVESGGGLVQPGGSLRLSCSASGFSLNSYAMIWVRQAPGKGLEYIGFITTGGTTYYADSVKGRFTISRDNSKNTLYLQMNSLRAEDTAVYYCARDRVKSYDDYGDLDAFEPWGQGTLVTVSS VL: DIQMTQSPSTLSASVGDRVTITCQASQSISSYLAWYQQKPGKAPKLLIYYASTLASGVPSRFKGSGSGTEFTLTITGVQCDDAATYYCLGVYGYSFDDGIAFGGGTKVEIKR | < 2 | 0.478 | 0.000273 | 572000 | 0.639 | 0.000373 | 587000 |  |  |  |  |  |  |  |  | 
6 | zu155D5-6 (antibody, human IgG1, kappa, Humanized 155D5, human IgG1 kappa; Tested both protein A purified and decapped) heavy: not shown light: DIQMTQSPSTVSAAVGGTVTITCQASQSISSYLAWYQQKPGKAPKLLIYYASTLASGVPSRFSGSGSGTEFTLTITGVQCDDAATYYCLGVYGYSFDDGIAFGGGTKVEIKRTVAAPSVFIFPPSDEQLKSGTASVVCLLNNFYPREAKVQWKVDNALQSGNSQESVTEQDSKDSTYSLSSTLTLSKADYEKHKVYACEVTHQGLSSPVTKSFNRGEC | < 2 | 0.568 | 0.000319 | 558000 | 0.533 | 0.000477 | 898000 |  |  |  |  |  |  |  |  | 
7 | zu155D5-7 (antibody, human IgG1, kappa, Humanized 155D5, human IgG1 kappa; Tested both protein A purified and decapped) heavy: not shown light: DIQMTQSPSTLSASVGDRVTITCQASQSISSYLAWYQQKPGKAPKLLIYYASTLASGVPSRFSGSGSGTEFTLTITGVQCDDAATYYCLGVYGYSFDDGIAFGGGTELEIKRTVAAPSVFIFPPSDEQLKSGTASVVCLLNNFYPREAKVQWKVDNALQSGNSQESVTEQDSKDSTYSLSSTLTLSKADYEKHKVYACEVTHQGLSSPVTKSFNRGEC | < 2 | 0.68 | 0.000319 | 485000 | 0.534 | 0.000458 | 869000 |  |  |  |  |  |  |  |  | 
8 | 155D5 (rabbit anti-CA9 mAb) (antibody, V domains shown, Parental rabbit IgG with rabbit constant regions (Cys80-Cys171 disulfide); also called rabbit 155D5 MAb) VH: QSVKESGGRLVTPGTPLTLTCTVSGFSLNSYAMIWVRQAPGEGLEYIGFITTGGTTYYASWAKGRFTISRTSTTVDLKLTRPTTEDTATYFCARDRVKSYDDYGDLDAFEPWGPGTLVTISS VL: ELVMTQTPSSVSAAVGGTVTINCQASQSISSYLAWYQQKPGQPPKLLIYYASTLASGVPSRFKGSGSGTEFTLTITGVQCDDAATYYCLGVYGYSFDDGIAFGGGTELEIK |  |  |  |  |  |  |  | 0.041 | 2.1e-05 | 510000 |  |  |  |  |  | 
9 | xi155D5 Fab (Fab, V domains shown, Made from xi155D5 by limited papain digestion and protein A removal of Fc; Fabs were fully decapped; not shown: human IgG1 CH1 and hinge up to the papain cleavage site) VH: QSVKESGGRLVTPGTPLTLTCTVSGFSLNSYAMIWVRQAPGEGLEYIGFITTGGTTYYASWAKGRFTISRTSTTVDLKLTRPTTEDTATYFCARDRVKSYDDYGDLDAFEPWGPGTLVTISS VL: ELVMTQTPSSVSAAVGGTVTINCQASQSISSYLAWYQQKPGQPPKLLIYYASTLASGVPSRFKGSGSGTEFTLTITGVQCDDAATYYCLGVYGYSFDDGIAFGGGTELEIKR |  |  |  |  |  |  |  |  |  |  | 0.0499 | 2.59e-05 | 519000 | 0.0383 | 2.19e-05 | 572000
